This passage reports self-cleavage results from the RNAGym collection of RNA variant scans (doi:10.7554/elife.90254).

The chains are these.
B1: LINE1-full (parent)
chain: UACGUAGGUGGUUUUCCCCUGAUAGUGCUAAGGGGGCCUGGAAGUUUGGACUGGGCAGAGCUCAACACAGCGUGGCAAAGUGGCUGUGGCUAGACUGCCUCUCUGGAUUCCUCGUCACUCAGCAGGGCAUCUCUGAGAGAAAUGCC

This data set covers variants of B1. The data set is described as follows: self-cleavage, relative activity (ratio to wild type); higher = more cleavage; in vitro, sequencing; the parent is a self-cleaving ribozyme.
Regarding C28A G32C, the self-cleavage was determined as 0.96.
For G27A A69C, the self-cleavage was determined as 0.11.
With C28A C131G, the self-cleavage came out at 0.33.
Then U29A C51A, with 1.65; and G27A U132C, with 1.27; and C28U U119C, with 1.12.
Turning to U29C A117G, the self-cleavage is 0.44.
As to U26C G35A, the self-cleavage was 1.26.
For the variant U26C U109C, the self-cleavage amounted to 1.74.
For the variant C28U A138G, the self-cleavage was determined as 1.01.
Consider U29C G55C, for which the self-cleavage was 0.
For U26C A94U, the self-cleavage worked out at 0.28.
As for U26C A94G, the self-cleavage was 0.39.
With U29A C110U, the self-cleavage turned out to be 1.07.
In the case of U26C A136U, the self-cleavage was 1.82.
For the variant U29A A77U, the self-cleavage was 1.79.
For U26C C38A, the self-cleavage is 1.28.
For the variant U26C A30G, the self-cleavage came to 1.05.
Take U29A U130C: the self-cleavage came to 0.81.
Take U26C C133U: the self-cleavage worked out at 0.98.
Take U26C U112C: the self-cleavage came out at 1.36.
Then G27A A67G, with 0.45.
U29A U52C: the self-cleavage amounted to 1.3.
Then U26C A77U, with 1.55; and U26C G93C, with 0.17; and U26C G93A, with 0.03.
U29C A138G: the self-cleavage was 1.72.
Turning to U26C G75U, the self-cleavage stood at 0.57.
With C28U U96A the figure was 0.06.
Then U29C U52A, with 1.16.
Then U29C U52C, with 1.84; and U26C U132C, with 1.62; and G27A A138G, with 1.02.
As to U26C C95A, the self-cleavage was determined as 0.1.
Then G27A A65G, with 0.05; and U29C C123U, with 1.21.
For the variant U29C A78G, the self-cleavage was 1.17.
Regarding U29A U47A, the self-cleavage was 1.6.
As to U29G U112C, the self-cleavage turned out to be 1.36.
Turning to U29A U73C, the self-cleavage came to 1.63.
On to U26G U130A, for which the self-cleavage came to 0.79.
As to U29G C113U, the self-cleavage came out at 0.66.
Regarding U29A U102C, the self-cleavage was found to be 1.2.
U29G U96A: the self-cleavage stood at 0.06.
Then U29G U96C, with 0.67; and U29C G70U, with 0.01.
As to U29A U91C, the self-cleavage was 0.4.
For U29A G54A, the self-cleavage is 0.75.
As to U26C U119C, the self-cleavage was found to be 1.77.
In the case of U26A U134C, the self-cleavage was 0.9.
Then U26G A142G, with 1.28; and G27U, with 0.97; and G27C, with 1.11.
For the variant G27A, the self-cleavage amounted to 1.07.
Consider U29G G137U, for which the self-cleavage was 1.04.
U29G A57G: the self-cleavage was 0.51.
Then U29C C116U, with 0.85; and U29C C66U, with 0.07; and U26C U73A, with 1.48.
As for U26C U73C, the self-cleavage turned out to be 1.45.
On to U29A U119G, for which the self-cleavage turned out to be 1.31.
For U29A U119C, the self-cleavage is 0.97.
As for U29C U112C, the self-cleavage was determined as 1.07.
On to U26C A92U, for which the self-cleavage worked out at 0.81.
As to U29G G35C, the self-cleavage was 1.03.
Then U26C A43C, with 1.63; and U26C A43G, with 1.43.
Consider U26C A57U, for which the self-cleavage came out at 0.14.
Regarding U26C A57G, the self-cleavage amounted to 1.14.
With U29C G48A the figure was 0.88; with U29G A141U, 0.35.
Take U29C U108C: the self-cleavage is 1.27.
Take U29G G70A: the self-cleavage came to 0.27.
Regarding G27A U134A, the self-cleavage is 0.87.
As to G27A U134C, the self-cleavage was 1.58.
As for U26G U85C, the self-cleavage came out at 0.14.
On to G27U U134A, for which the self-cleavage is 1.29.
Then G27A A129G, with 2.07; and U26C C61U, with 0.04.
U26C C61A: the self-cleavage amounted to 0.06.
Then U29C C145U, with 1.28.
Then U26C A124G, with 0.64; and U29C A129G, with 2.12; and U29A A124C, with 1.52.
Turning to G27C A117G, the self-cleavage is 0.95.
U26A U104A: the self-cleavage amounted to 0.98.
For the variant U29C G114C, the self-cleavage turned out to be 1.49.
Then U29C G114A, with 1.38; and U29C A67U, with 0.12.
For U29C A67G, the self-cleavage came to 0.76.
For the variant U26A U45G, the self-cleavage was determined as 0.6.
As for C28U U39C, the self-cleavage is 0.97.
On to U29C A31G, for which the self-cleavage stood at 1.14.
As for U29A C66U, the self-cleavage was found to be 0.25.
With U26A U102G the figure was 0.38; with U26A U102A, 1.01.
Consider U29C A50U, for which the self-cleavage is 1.14.
As for U29G U108C, the self-cleavage amounted to 0.54.
As to C28U U130C, the self-cleavage is 0.7.
Take U29C U143A: the self-cleavage was determined as 1.17.
U29C G127A: the self-cleavage is 0.64.
Consider U29C G127C, for which the self-cleavage worked out at 1.58.
As for G27A U108C, the self-cleavage was 1.15.
With U29A A121G the figure was 1.31.
For U26C U91C, the self-cleavage amounted to 0.73.
For U29C G44C, the self-cleavage was found to be 1.82.
Take U29A U112C: the self-cleavage was 0.43.
Regarding G27A U87C, the self-cleavage is 0.19.
On to G27A A42U, for which the self-cleavage came to 0.99.
With U26C G127A the figure was 1.37; with U26C A64G, 0.39; with U29C G89A, 0.06.
For the variant U29C A107G, the self-cleavage came out at 0.7.
With U29C A107U the figure was 1.21; with U26G U91C, 0.44.
With U26A U115C the figure was 1.29.
Then U26C G53U, with 1.2; and C28U A92G, with 0.11; and G27A G88A, with 0.04.
On to U26C A117U, for which the self-cleavage was determined as 2.25.
Take U26C A117G: the self-cleavage was determined as 1.51.
As for U29G, the self-cleavage stood at 1.1.
With U29A the figure was 1.23; with U29C, 1.28; with U26C U39C, 0.9.
Turning to U26C G144C, the self-cleavage turned out to be 1.68.
For U26G U104C, the self-cleavage was determined as 0.81.
For U26C A78G, the self-cleavage amounted to 1.1.
For C28U A64G, the self-cleavage came out at 0.16.
On to C28U A64U, for which the self-cleavage came to 0.33.
Turning to G27A U112C, the self-cleavage turned out to be 1.7.
Turning to U26C U29A, the self-cleavage was determined as 1.35.
In the case of U26A U132A, the self-cleavage is 1.34.
Turning to U26C A129G, the self-cleavage was determined as 1.41.
Then G27A U102C, with 0.84.
For the variant U29C A64C, the self-cleavage was found to be 0.61.
In the case of U29C A64G, the self-cleavage turned out to be 0.38.
In the case of C28A G88A, the self-cleavage was 0.
For U26A U47G, the self-cleavage is 1.6.
On to U26A U47A, for which the self-cleavage came out at 0.59.
As to U26A U47C, the self-cleavage was found to be 1.
In the case of G27A G55A, the self-cleavage was 0.21.
Consider G27A A59G, for which the self-cleavage was 0.13.
Take U29C C120A: the self-cleavage worked out at 1.24.
As to G27A A140U, the self-cleavage came out at 1.28.
As to U26C A67U, the self-cleavage came to 0.06.
Take G27A U85C: the self-cleavage came to 0.13.
Take G27C U109C: the self-cleavage stood at 0.92.
On to U26G G27A, for which the self-cleavage was found to be 1.01.
Consider U29C G83A, for which the self-cleavage came out at 0.43.
G27A U46C: the self-cleavage amounted to 0.7.
For U26C U134C, the self-cleavage was 0.83.
Regarding U29A U132A, the self-cleavage worked out at 1.09.
Then U29A U132C, with 0.59; and U26A U96G, with 0.03; and U26A U85C, with 0.17.
With U26A U85A the figure was 0.16; with U29C U109C, 0.91.
In the case of U26G, the self-cleavage was found to be 0.99.
For the variant U26C, the self-cleavage was 1.24.
As to U29A U143A, the self-cleavage worked out at 0.84.
With U29A U143C the figure was 1.16; with U29C A77U, 1.63; with U29C A77C, 0.85.
In the case of U26G C110U, the self-cleavage is 1.75.
On to C28U U102C, for which the self-cleavage was determined as 0.15.
With U26C C76U the figure was 1.87.
